B1: Blon_2123 (Bifidobacterium longum subsp. infantis ATCC 15697 = JCM 1222 = DSM 20088) (protein)
chain: MRARRDFAWPKLLTADGRGIAFGGDYNPDQWPEDVWDDDIRLMGQAGVNTVALAIFSWDRLQPTEDHWNFDWLDRIIDKLGQAGIAVDLASATATAPLWLYENHPEVLPRDKYGHPVNAGSRQSWSPTSPVFKEYALTLCRKLAERYGTNPYVTAWHMGNEYGWNNRDDYSDNALEAFRAWCRRKYGTIDALNQAWGTTFWGQEMTGFDEVLIPRFMGADSMVNPGQKLDFERFGNDMLLDFYKAERDAIAEICPDKPFTTNFMISTDQCCMDYAAWAEEVNFVSNDHYFHEGESHLDELACSDALVDSLALGKPWYVMEHSTSAVQWKPLNTRKRNGETVRDSLAHVAMGADAINFFQWRASAFGAEAFHSAMVPHAGENTKLFRQVCELGATLQALADAGVQGSELAHADTAILFSAESEWATRSETLPSMKLNHWHDVRDWYRAFLNAGARADIVPLAYDWSSYKTIVLPTVLMLSDADTRRLAGFVQDGGRVVVGYATGLLDERFHTWLGGYPGAGDGLLRSMLGVRGEEFNILGTETEDEPSEIRLASTGDSPTMDGAVTRLWQNDVTVAGPHVQVLAAYAGEEANEWELDGTAAITRNTYGEGEAYFLGCDLGVSDLTRFVGGWLAARPQDGRQPEANLRSPASGVTSDVLHTVRQSDDAIFDFYLTRGKSDVELRDIAGEPIVLFRAERGSDGGAYTVHRNGVLVMKRPNPSV

Experiments:
[1] = system: O=[N+]([O-])c1ccccc1O[C@@H]1O[C@H](CO)[C@H](O)[C@H](O)[C@H]1O; assay: o-nitrophenol release, A420, Michaelis-Menten non-linear fit; assay type: biochemical, Bifidobacterium longum subsp. infantis; details: optimum pH 5.0 and optimum temperature 45-55 °C, 0.1-4 mM ONPG
[2] = substrate: O=[N+]([O-])c1ccccc1O[C@@H]1O[C@H](CO)[C@H](O)[C@H](O)[C@H]1O; assay: as above; assay type: biochemical, Bifidobacterium longum; details: optimum pH 5.0-6.0 and optimum temperature 45-55 °C, 0.1-4 mM ONPG

Row | Molecule | Km [1] [µM] | kcat [1] [s⁻¹] | kcat/Km [1] [M⁻¹ s⁻¹] | Km [2] [µM] | kcat [2] [s⁻¹] | kcat/Km [2] [M⁻¹ s⁻¹]
1 | Blon_0268 (Bifidobacterium longum subsp. infantis ATCC 15697 = JCM 1222 = DSM 20088) | 600 | 5.11 | 8500 | – | – | –
2 | B1 | – | – | – | 1060 | 270 | 250000
